Columns and labels:
[1] = tested on: VpsT (Vibrio cholerae C7258?); assay: EMSA
[2] = tested on: H-NS (Vibrio cholerae C7258?); assay: EMSA

Substance	Kd [1]	Kd [2]
vpsL promoter -262 to -185	35.4 nM	204 nM
vpsA promoter -223 to -139	42.6 nM	138 nM

Reference: publication PMC4617317
